# Experimental data as given in the supplement of paper PMC10065799, “High-throughput profiling of sequence recognition by tyrosine kinases and SH2 domains using bacterial peptide display” (eLife, 2023).
# Test system: AncSZ
# Experiment: phosphorylation enrichment, bacterial display (enrichment ratio); higher = better substrate or ligand; peptides without Tyr show the background
# 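Note: 11-residue human phosphosite peptides and single-mutation variants displayed on the E. coli surface, counted by deep sequencing, each peptide's frequency after selection divided by its frequency in the unselected input library; frequency after pTyr selection over input frequency; kinase dosed for 20-30% of maximal phosphorylation in three min.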
row,Sequence,phosphorylation enrichment
1,CDTKLYTSAPN [DNTTIP2_Y427],1
2,MSSHHYDYKKY [ZNF445_Y428],0.503
3,FSAPNCCFRCG [PPP2CA_Y265_Y265C_YF],0.856
4,AGQEEYSAMRD [HRAS_Y64],0.879
5,ENAGFYFRISA,1.32
6,QNTGNYFDLFG [PTPN11_Y62_D61N_YF],1.6
7,SRDPFYEMLTA [CYTH1_Y382_A386T],1.25
8,PEADKYHLTYA [FGG_Y300_R301H],0.685
9,LIGRGYDDPEV [HSPA9_Y128_R127G],1.54
10,SEKISYVFMKR [SSX7_Y48_L43S_YF],1.25
11,TKFVAYIESQG [KDM4B_Y34_N29T_YF],0.974
12,GIFSGYDDAWD [POLR1C_Y36_N32I_YF],1.1
13,QEIATCRRLLE [KRT14_Y415_Y415C],0.896
14,RQQQDYWLMDV [ANPEP_Y600_I603M],1.8
15,TSEASYYKSLN [NGEF_Y288],0.743
16,PEIIAYQPYGK [PRKCG_Y529],0.852
17,PLLLSYFLIKW [NUP160_Y773_YF],1.37

row,Sequence,phosphorylation enrichment
1,SVVVCYEPPEV [TP53_Y220_P219C],1.78
2,RMSQRYRDVLQ [CYP1A2_Y72_G73R],1.11
3,KDHLDYKFQPR [SOX9_Y172_P170L_YF],0.73
4,EAVKNYTDKRG [PBRM1_Y672],0.56
5,EADRKYEEVAH [TPM3_Y163_R168H],1
6,SKEPYYVRCIK [MYO1D_Y586],1.06
7,RRKRAYVEIEF [MAK16_Y282_Q277R_YF],0.665
8,FEGRSYSACTT [MMP9_Y241],0.926
9,EPSLVYMVTKI [CPS1_Y768_D767V],1.16
10,DFPIGYPSYLA [TBCK_Y153],0.722
11,ANARMYGVLPW [PLP1_Y207_D203N],0.74
12,LVMFIYAIFWM [SCN1A_Y1684_G1688W],1.07
13,KLQKYYRKNPD [EHHADH_Y683_Q685K],0.399
14,PKGWNYELPAT [PROM1_Y34_A31G],1
15,YSGIYYKPESL [L2HGDH_Y103_H98Y],2.36
16,QAEEWYFGKMG [YES1_Y159],1.28

# Target: EPHB1 (UniProt P54762)
# Sequence (P54762 whole entry, looked up): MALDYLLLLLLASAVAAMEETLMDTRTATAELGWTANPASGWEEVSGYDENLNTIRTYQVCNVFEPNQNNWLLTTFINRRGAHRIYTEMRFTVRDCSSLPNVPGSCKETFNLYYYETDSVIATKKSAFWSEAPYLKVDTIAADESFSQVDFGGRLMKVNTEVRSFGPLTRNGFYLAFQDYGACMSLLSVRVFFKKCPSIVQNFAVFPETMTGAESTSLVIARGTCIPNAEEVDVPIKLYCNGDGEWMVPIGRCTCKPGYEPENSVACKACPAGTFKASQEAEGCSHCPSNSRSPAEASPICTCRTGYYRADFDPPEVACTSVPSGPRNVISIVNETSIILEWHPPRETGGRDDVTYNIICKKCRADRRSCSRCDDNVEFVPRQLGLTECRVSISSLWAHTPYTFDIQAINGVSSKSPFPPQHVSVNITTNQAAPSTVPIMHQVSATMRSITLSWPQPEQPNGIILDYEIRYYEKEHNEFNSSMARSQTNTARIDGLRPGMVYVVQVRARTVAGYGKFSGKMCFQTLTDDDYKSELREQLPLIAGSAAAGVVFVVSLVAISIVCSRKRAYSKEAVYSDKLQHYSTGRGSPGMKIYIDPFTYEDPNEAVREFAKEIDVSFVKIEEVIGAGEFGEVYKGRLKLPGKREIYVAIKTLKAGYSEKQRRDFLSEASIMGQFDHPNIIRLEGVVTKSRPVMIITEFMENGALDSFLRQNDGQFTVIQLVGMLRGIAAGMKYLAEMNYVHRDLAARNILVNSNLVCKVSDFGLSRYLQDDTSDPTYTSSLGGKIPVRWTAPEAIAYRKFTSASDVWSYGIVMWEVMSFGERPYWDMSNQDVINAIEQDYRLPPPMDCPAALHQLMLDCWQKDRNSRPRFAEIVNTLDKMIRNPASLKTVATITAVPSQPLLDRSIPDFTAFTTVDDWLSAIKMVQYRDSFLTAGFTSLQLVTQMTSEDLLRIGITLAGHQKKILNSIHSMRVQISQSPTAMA
# Experiment: as above
row,Sequence,phosphorylation enrichment
1,CDTKLYTSAPN [DNTTIP2_Y427],0.626
2,MSSHHYDYKKY [ZNF445_Y428],0.394
3,FSAPNCCFRCG [PPP2CA_Y265_Y265C_YF],0.559
4,AGQEEYSAMRD [HRAS_Y64],0.507
5,ENAGFYFRISA,0.587
6,QNTGNYFDLFG [PTPN11_Y62_D61N_YF],27.6
7,SRDPFYEMLTA [CYTH1_Y382_A386T],4.93
8,PEADKYHLTYA [FGG_Y300_R301H],0.51
9,LIGRGYDDPEV [HSPA9_Y128_R127G],0.695
10,SEKISYVFMKR [SSX7_Y48_L43S_YF],0.599
11,TKFVAYIESQG [KDM4B_Y34_N29T_YF],0.499
12,GIFSGYDDAWD [POLR1C_Y36_N32I_YF],0.51
13,QEIATCRRLLE [KRT14_Y415_Y415C],0.412
14,RQQQDYWLMDV [ANPEP_Y600_I603M],7.32
15,TSEASYYKSLN [NGEF_Y288],0.575
16,PEIIAYQPYGK [PRKCG_Y529],0.585
17,PLLLSYFLIKW [NUP160_Y773_YF],0.909

row,Sequence,phosphorylation enrichment
1,SVVVCYEPPEV [TP53_Y220_P219C],0.751
2,RMSQRYRDVLQ [CYP1A2_Y72_G73R],0.422
3,KDHLDYKFQPR [SOX9_Y172_P170L_YF],0.475
4,EAVKNYTDKRG [PBRM1_Y672],0.484
5,EADRKYEEVAH [TPM3_Y163_R168H],0.587
6,SKEPYYVRCIK [MYO1D_Y586],0.566
7,RRKRAYVEIEF [MAK16_Y282_Q277R_YF],0.582
8,FEGRSYSACTT [MMP9_Y241],0.643
9,EPSLVYMVTKI [CPS1_Y768_D767V],0.575
10,DFPIGYPSYLA [TBCK_Y153],0.406
11,ANARMYGVLPW [PLP1_Y207_D203N],0.513
12,LVMFIYAIFWM [SCN1A_Y1684_G1688W],0.525
13,KLQKYYRKNPD [EHHADH_Y683_Q685K],0.353
14,PKGWNYELPAT [PROM1_Y34_A31G],0.597
15,YSGIYYKPESL [L2HGDH_Y103_H98Y],9.38
16,QAEEWYFGKMG [YES1_Y159],0.498

# Target: EPHB2 (UniProt P29323)
# Sequence (P29323 whole entry, looked up): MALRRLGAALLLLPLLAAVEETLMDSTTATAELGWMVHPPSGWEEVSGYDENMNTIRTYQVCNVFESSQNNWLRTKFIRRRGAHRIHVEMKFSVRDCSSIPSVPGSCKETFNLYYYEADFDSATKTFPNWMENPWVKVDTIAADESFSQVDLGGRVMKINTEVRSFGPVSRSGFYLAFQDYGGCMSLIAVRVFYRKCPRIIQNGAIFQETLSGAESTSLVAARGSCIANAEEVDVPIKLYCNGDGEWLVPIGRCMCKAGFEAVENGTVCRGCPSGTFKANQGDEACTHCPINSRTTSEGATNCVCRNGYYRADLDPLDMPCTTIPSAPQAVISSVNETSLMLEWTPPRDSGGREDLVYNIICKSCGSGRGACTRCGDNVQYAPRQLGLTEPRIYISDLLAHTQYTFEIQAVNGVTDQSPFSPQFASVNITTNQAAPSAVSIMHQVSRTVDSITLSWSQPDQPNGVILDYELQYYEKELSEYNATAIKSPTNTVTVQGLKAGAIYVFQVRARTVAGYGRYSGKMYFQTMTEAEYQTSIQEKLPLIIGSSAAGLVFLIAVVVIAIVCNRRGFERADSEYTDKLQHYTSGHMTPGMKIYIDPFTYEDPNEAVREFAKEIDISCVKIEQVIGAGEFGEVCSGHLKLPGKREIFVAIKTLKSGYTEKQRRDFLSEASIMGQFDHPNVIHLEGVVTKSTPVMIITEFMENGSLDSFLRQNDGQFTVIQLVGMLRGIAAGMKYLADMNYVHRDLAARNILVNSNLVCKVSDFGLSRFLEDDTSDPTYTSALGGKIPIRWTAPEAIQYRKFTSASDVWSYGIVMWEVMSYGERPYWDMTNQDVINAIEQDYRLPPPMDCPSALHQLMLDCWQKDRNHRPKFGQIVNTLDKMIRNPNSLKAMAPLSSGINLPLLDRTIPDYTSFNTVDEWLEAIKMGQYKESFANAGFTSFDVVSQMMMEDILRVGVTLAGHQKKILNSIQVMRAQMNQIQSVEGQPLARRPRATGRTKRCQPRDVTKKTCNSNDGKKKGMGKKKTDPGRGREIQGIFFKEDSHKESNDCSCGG
# Experiment: as above
row,Sequence,phosphorylation enrichment
1,CDTKLYTSAPN [DNTTIP2_Y427],0.791
2,MSSHHYDYKKY [ZNF445_Y428],0.375
3,FSAPNCCFRCG [PPP2CA_Y265_Y265C_YF],0.461
4,AGQEEYSAMRD [HRAS_Y64],0.547
5,ENAGFYFRISA,0.73
6,QNTGNYFDLFG [PTPN11_Y62_D61N_YF],22.6
7,SRDPFYEMLTA [CYTH1_Y382_A386T],2.82
8,PEADKYHLTYA [FGG_Y300_R301H],0.592
9,LIGRGYDDPEV [HSPA9_Y128_R127G],0.802
10,SEKISYVFMKR [SSX7_Y48_L43S_YF],0.597
11,TKFVAYIESQG [KDM4B_Y34_N29T_YF],0.56
12,GIFSGYDDAWD [POLR1C_Y36_N32I_YF],0.651
13,QEIATCRRLLE [KRT14_Y415_Y415C],0.502
14,RQQQDYWLMDV [ANPEP_Y600_I603M],3.72
15,TSEASYYKSLN [NGEF_Y288],0.498
16,PEIIAYQPYGK [PRKCG_Y529],0.665
17,PLLLSYFLIKW [NUP160_Y773_YF],0.622

row,Sequence,phosphorylation enrichment
1,SVVVCYEPPEV [TP53_Y220_P219C],0.697
2,RMSQRYRDVLQ [CYP1A2_Y72_G73R],0.719
3,KDHLDYKFQPR [SOX9_Y172_P170L_YF],0.478
4,EAVKNYTDKRG [PBRM1_Y672],0.498
5,EADRKYEEVAH [TPM3_Y163_R168H],0.423
6,SKEPYYVRCIK [MYO1D_Y586],0.511
7,RRKRAYVEIEF [MAK16_Y282_Q277R_YF],0.658
8,FEGRSYSACTT [MMP9_Y241],0.616
9,EPSLVYMVTKI [CPS1_Y768_D767V],0.534
10,DFPIGYPSYLA [TBCK_Y153],0.457
11,ANARMYGVLPW [PLP1_Y207_D203N],0.676
12,LVMFIYAIFWM [SCN1A_Y1684_G1688W],0.491
13,KLQKYYRKNPD [EHHADH_Y683_Q685K],0.415
14,PKGWNYELPAT [PROM1_Y34_A31G],0.454
15,YSGIYYKPESL [L2HGDH_Y103_H98Y],12.4
16,QAEEWYFGKMG [YES1_Y159],0.48

# Target: FGFR1 (UniProt P11362)
# Sequence (P11362 whole entry, looked up): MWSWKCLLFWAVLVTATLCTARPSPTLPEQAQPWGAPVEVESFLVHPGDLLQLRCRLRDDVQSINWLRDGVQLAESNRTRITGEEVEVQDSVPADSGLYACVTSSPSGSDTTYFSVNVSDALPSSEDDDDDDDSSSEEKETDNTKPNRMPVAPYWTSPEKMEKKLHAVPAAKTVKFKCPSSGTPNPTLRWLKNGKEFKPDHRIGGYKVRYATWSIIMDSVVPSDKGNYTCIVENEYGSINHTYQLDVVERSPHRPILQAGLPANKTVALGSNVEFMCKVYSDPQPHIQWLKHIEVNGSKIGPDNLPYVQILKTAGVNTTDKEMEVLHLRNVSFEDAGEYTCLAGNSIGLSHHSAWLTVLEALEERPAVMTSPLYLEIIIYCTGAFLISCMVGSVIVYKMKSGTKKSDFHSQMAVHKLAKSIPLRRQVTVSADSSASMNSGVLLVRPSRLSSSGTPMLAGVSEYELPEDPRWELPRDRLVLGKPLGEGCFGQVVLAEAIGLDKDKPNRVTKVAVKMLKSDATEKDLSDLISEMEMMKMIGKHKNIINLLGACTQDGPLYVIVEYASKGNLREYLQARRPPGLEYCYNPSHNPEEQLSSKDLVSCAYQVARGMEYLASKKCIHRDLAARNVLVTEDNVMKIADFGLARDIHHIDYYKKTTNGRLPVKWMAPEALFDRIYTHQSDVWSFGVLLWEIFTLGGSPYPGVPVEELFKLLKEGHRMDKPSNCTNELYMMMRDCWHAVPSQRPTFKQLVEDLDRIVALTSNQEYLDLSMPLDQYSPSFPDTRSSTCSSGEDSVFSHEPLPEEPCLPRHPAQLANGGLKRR
# Experiment: as above
row,Sequence,phosphorylation enrichment
1,CDTKLYTSAPN [DNTTIP2_Y427],0.595
2,MSSHHYDYKKY [ZNF445_Y428],0.338
3,FSAPNCCFRCG [PPP2CA_Y265_Y265C_YF],0.458
4,AGQEEYSAMRD [HRAS_Y64],0.477
5,ENAGFYFRISA,0.467
6,QNTGNYFDLFG [PTPN11_Y62_D61N_YF],21.2
7,SRDPFYEMLTA [CYTH1_Y382_A386T],7.02
8,PEADKYHLTYA [FGG_Y300_R301H],0.665
9,LIGRGYDDPEV [HSPA9_Y128_R127G],0.828
10,SEKISYVFMKR [SSX7_Y48_L43S_YF],0.52
11,TKFVAYIESQG [KDM4B_Y34_N29T_YF],0.51
12,GIFSGYDDAWD [POLR1C_Y36_N32I_YF],0.531
13,QEIATCRRLLE [KRT14_Y415_Y415C],0.634
14,RQQQDYWLMDV [ANPEP_Y600_I603M],18
15,TSEASYYKSLN [NGEF_Y288],0.516
16,PEIIAYQPYGK [PRKCG_Y529],0.823
17,PLLLSYFLIKW [NUP160_Y773_YF],1.53

row,Sequence,phosphorylation enrichment
1,SVVVCYEPPEV [TP53_Y220_P219C],0.509
2,RMSQRYRDVLQ [CYP1A2_Y72_G73R],0.484
3,KDHLDYKFQPR [SOX9_Y172_P170L_YF],0.498
4,EAVKNYTDKRG [PBRM1_Y672],0.418
5,EADRKYEEVAH [TPM3_Y163_R168H],0.493
6,SKEPYYVRCIK [MYO1D_Y586],0.58
7,RRKRAYVEIEF [MAK16_Y282_Q277R_YF],0.563
8,FEGRSYSACTT [MMP9_Y241],0.728
9,EPSLVYMVTKI [CPS1_Y768_D767V],0.543
10,DFPIGYPSYLA [TBCK_Y153],0.481
11,ANARMYGVLPW [PLP1_Y207_D203N],0.462
12,LVMFIYAIFWM [SCN1A_Y1684_G1688W],0.566
13,KLQKYYRKNPD [EHHADH_Y683_Q685K],0.311
14,PKGWNYELPAT [PROM1_Y34_A31G],0.518
15,YSGIYYKPESL [L2HGDH_Y103_H98Y],11
16,QAEEWYFGKMG [YES1_Y159],1.17
